The values that follow come from patent EP1192182B1, “PITUITARY ADENYLATE CYCLASE ACTIVATING PEPTIDE (PACAP) RECEPTOR 3 (R3) AGONISTS AND THEIR PHARMACOLOGICAL METHODS OF USE” (priority 1999, dated 2001).

T1: PACAP-R3 (human, UniProt P41587 24-438)
T1 sequence (looked up): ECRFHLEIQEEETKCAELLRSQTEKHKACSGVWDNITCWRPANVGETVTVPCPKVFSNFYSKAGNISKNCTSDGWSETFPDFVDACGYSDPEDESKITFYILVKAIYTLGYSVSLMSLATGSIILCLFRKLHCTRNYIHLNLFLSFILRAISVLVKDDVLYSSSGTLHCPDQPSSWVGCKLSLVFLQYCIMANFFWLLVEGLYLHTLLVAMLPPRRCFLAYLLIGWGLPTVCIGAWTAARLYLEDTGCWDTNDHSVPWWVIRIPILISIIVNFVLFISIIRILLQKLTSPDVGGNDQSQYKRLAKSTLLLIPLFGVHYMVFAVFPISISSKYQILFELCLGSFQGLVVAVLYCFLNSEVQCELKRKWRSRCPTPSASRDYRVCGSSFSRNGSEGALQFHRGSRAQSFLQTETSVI

Non-standard residues stand in square brackets, D forms with d. Nle = CCCC[C@H](N)C(=O)O

The assay has as its target T1, PACAP-R3. In words: cell-based or functional assay.
HSDAVFTDNYTRLRKQMAAKKYLNSIKNFR [R3P137]: the “R3 EC50” value came out at 0.3 nM and the “R3 Selectivity” value is 100 ratio.

Turning to HSDAVFTDNYTRLRKQMAVKKYLNSILK [R3P43], the “R3 Selectivity” value came out at 10 ratio.

With HSDAVFTDNYTRLRKQMAVKKYLNSIKK [R3P41], the “R3 Selectivity” value was 100 ratio.

Consider HSDAVFTDNYTRLRKQMAAKKYLNSIKNKP [R3P164], for which the “R3 EC50” value came to 0.3 nM.

Turning to HSDAVFTDNYTRLRKQMAAKKYLNSIKNER [R3P136], the “R3 Selectivity” value was determined as 70 ratio.

Consider HSDAVFTDNYTRLRKQMAAKKYLNSIKNIR [R3P140], for which the “R3 EC50” value worked out at 0.3 nM and the “R3 Selectivity” value is 50 ratio.

Take HSDAVFTDNYTELRKQMAVKKYLNSILN [R3P44]: the “R3 Selectivity” value was found to be 6 ratio.

For the molecule HSDAVFTDNYTRLRKQMAAKKYLNSIKNKN [R3P163], the “R3 EC50” value was found to be 0.2 nM and the “R3 Selectivity” value was found to be 200 ratio.

As to HSDAVFTDNYTRLRKQLAAKKYLNDIKKKRY [R3P36], the “R3 Selectivity” value is above 200 ratio.

Regarding HSDAVFTDNYTRLRKQMAVKKYLNDLKKGGT [R3P14], the “R3 Selectivity” value turned out to be 3 ratio.

Turning to HSDAVFTDNYTRLRKQLAVKKYLNSIKKGGT [R3P25], the “R3 Selectivity” value stood at 20 ratio.

As for HSDAVFTDNYTRLRKQLAVKKYLNDIKKGGT [R3P21], the “R3 Selectivity” value worked out at 60 ratio.

As to HSDAVFTDNYTRLRKQLAVKKYLNDIKNGGT [R3P29], the “R3 Selectivity” value was above 200 ratio.

Regarding HSDAVFTDNYTRLRKQMAAKKYLNSIKKGGT [R3P26], the “R3 Selectivity” value was above 180 ratio.

Regarding HSDAVFTDNYTRLRKQMAAKKYLNDIKKGGT [R3P20], the “R3 Selectivity” value turned out to be 230 ratio.

Turning to HSDAVFTDNYTRLRKQMAAKKYLNSIKNWR [R3P150], the “R3 EC50” value was 0.8 nM and the “R3 Selectivity” value is 50 ratio.

Turning to HSDAVFTDNYTRLRKQMAAKKYLNSIKNRR [R3P146], the “R3 EC50” value came to 0.3 nM and the “R3 Selectivity” value stood at 100 ratio.

Regarding HSDAVFTDNYTRLRKQLAAKKYLNDIKKNQ [R3P35], the “R3 Selectivity” value was above 40 ratio.

Regarding HSDAVFTDNYTRLRKQMAAKKYLNSIKNKF [R3P156], the “R3 EC50” value came to 1 nM and the “R3 Selectivity” value came out at 100 ratio.

Consider HSDAVFTDNYTRLRKQMAAKKYLNSIKNVR [R3P149], for which the “R3 EC50” value was 0.5 nM and the “R3 Selectivity” value worked out at 80 ratio.

Consider HSDAVFTENYTKLRKQLAAKKYLNDLKKGGTSWCEPGWCR [R3P19], for which the “R3 Selectivity” value turned out to be 30 ratio.

Take HSDAVFTDNYTRLRKQMAAKKYLNSIKNKI [R3P159]: the “R3 EC50” value worked out at 0.5 nM and the “R3 Selectivity” value stood at 400 ratio.

With HSDAVFTDNYTRLRKQMAAKKYLNSIKNHR [R3P139], the “R3 EC50” value was determined as 0.4 nM and the “R3 Selectivity” value amounted to 50 ratio.

On to HSDAVFTDNYTRLRKQMAAKKYLNSIKNKK [R3P160], for which the “R3 Selectivity” value was 500 ratio.

Take HSDAVFTDNYTRLRKQMAAKKYLNSIKNKH [R3P158]: the “R3 EC50” value worked out at 0.07 nM and the “R3 Selectivity” value was 90 ratio.

As for HSDAVFTDNYTRLRKQLAAKKYLNDIKKQ [R3P34], the “R3 Selectivity” value was above 70 ratio.

As to Ac-HSDAVFTENYTKLRKQ[Nle]AAKKYLNDLKKGGT-NH2 [R3P0], the “R3 Selectivity” value was above 250 ratio.

With HSDAVFTDNYTRLRKQLAAKKYLNDIKKGG [R3P31], the “R3 Selectivity” value is above 300 ratio.

Take HSDAVFTDNYTRLRKQLAAKKYLNDIKK [R3P33]: the “R3 Selectivity” value was above 200 ratio.

For the molecule HSDAVFTDNYTRLRKQMAAKKYLNSIKNPR [R3P144], the “R3 EC50” value was 3 nM and the “R3 Selectivity” value is 100 ratio.

HSDAVFTDNYTRLRKQMAVKKYLNSIKN [R3P42]: the “R3 Selectivity” value came to 10 ratio.

Regarding HSDAVFTDNYTRLRKQMAAKKYLNSIKNNR [R3P143], the “R3 EC50” value turned out to be 0.2 nM and the “R3 Selectivity” value was 30 ratio.

Consider HSDAVFTDNYTRLRKQLAAKKYLNDIKKG [R3P32], for which the “R3 Selectivity” value was 200 ratio.

Take HSDAVFTDNYTRLRKQMAAKKYLNSIKNKE [R3P155]: the “R3 EC50” value was 0.4 nM and the “R3 Selectivity” value was determined as 100 ratio.

Take HSDAVFTDNYTRLRKQMAAKKYLNSIKNMR [R3P142]: the “R3 Selectivity” value amounted to 30 ratio.

HSDAVFTDNYTRLRKQMAAKKYLNSIKNQR [R3P145]: the “R3 EC50” value came to 0.5 nM and the “R3 Selectivity” value amounted to 100 ratio.

As for HSDAVFTDNYTRLRKQLAAKKYLNSIKKGGT [R3P22], the “R3 Selectivity” value amounted to 24 ratio.

Turning to HSDAVFTDNYTRLRKQLAAKKYLNDIKNGGT [R3P24], the “R3 Selectivity” value worked out at 34 ratio.

Take HSDAVFTDNYTRLRKQLAAKKYLNSIKNGGT [R3P30]: the “R3 Selectivity” value came out at 50 ratio.

On to HSDAVFTDNYTRLRKQMAAKKYLNSIWNKR [R3P131], for which the “R3 EC50” value was 0.3 nM and the “R3 Selectivity” value stood at 70 ratio.

For HSDAVFTDNYTRLRKQMAAKKYLNSIKNKG [R3P157], the “R3 EC50” value came out at 0.3 nM and the “R3 Selectivity” value was 170 ratio.

Consider HSDAVFTDNYTRLRKQMAAKKYLNSIKNKD [R3P153], for which the “R3 EC50” value turned out to be 0.2 nM and the “R3 Selectivity” value amounted to 200 ratio.

In the case of HSDAVFTDNYTRLRKQMAAKKYLNSIYNKR [R3P132], the “R3 EC50” value worked out at 0.2 nM.

On to HSDAVFTDNYTRLRKQMAAKKYLNSIKNCR [R3P134], for which the “R3 EC50” value is 0.4 nM and the “R3 Selectivity” value was determined as 100 ratio.

For the molecule HSDAVFTDNYTRLRKQMAAKKYLNSIKNTR [R3P148], the “R3 EC50” value came out at 0.3 nM and the “R3 Selectivity” value amounted to 100 ratio.

For the molecule HSDAVFTDNYTRLRKQMAAKKYLNSIKNLR [R3P141], the “R3 Selectivity” value is 100 ratio.

With Ac-HSDAVFTENYTKLRKQLAAKKYLNDLKKGGT-NH2 [R3P1], the “R3 Selectivity” value is above 50 ratio.

Turning to HSDAVFTDNYTRLRKQMAAKKYLNSIKNKL [R3P161], the “R3 EC50” value is 0.2 nM.

Take HSDAVFTDNYTRLRKQMAAKKYLNSIKNSR [R3P147]: the “R3 EC50” value was determined as 0.2 nM and the “R3 Selectivity” value worked out at 500 ratio.
